Values belong to the binder of their own block, whether it stands above or below them.
Legend:
[1] = molecular target: CtIP (residues 45-897), human, from pCMV-HA-ns311 (human, UniProt Q99708 45-897); assay: co-immunoprecipitation (anti-Flag) / anti-CtIP western blot, transfected 293T cells
Experimental: (§1) FIG. 6: Interaction between LM04 and CtIP requires a single LIM domain and appears to be specific for the LMO subclass. A, CtIP associates with LMO4 and LMO2. […] Lysates were prepared and proteins immunoprecipitated with the indicated specific antisera. F, Flag; C, control isotype-matched monoclonal antibody. Immunoblotting was performed with the antibodies indicated under each panel. Lane 4 depicts the reciprocal immunoprecipitation experiment performed using an anti-CtIP antibody. The 25 kD bands in lane 4 represent light chain. Western blot analysis of lysates confirmed expression of CtIP and LMO proteins. Note the different size markers indicated for LMO proteins detected by western analysis using anti-Flag antibody (lane 4). B, The first LIM domain but not the second LIM domain of LMO4 interacts with CtIP. […] Cell extracts were immunoprecipitated with anti-Flag (F) antibody, then immunoblotted with anti-CtIP antisera. Western blot analysis of lysates confirmed expression of CtIP and LIM polypeptides (lower panels). […] Cell extracts were immunoprecipitated with anti-Flag (F) antibody, then immunoblotted with anti-CtIP antibody. Western blot analysis of lysates confirmed expression of CtIP and LIM proteins (lower panels). D, Interaction between endogenous LMO4 and CtIP proteins in HBL100 epithelial cells. […]

HA-CtIP (281-620) = HA-CtIP (281-620) (human, UniProt Q99708 281-620); assay: co-immunoprecipitation (anti-Flag) / anti-HA western blot, transfected 293T cells
Experimental: (§2) FIG. 7: Two regions within CtIP specifically interact with LMO4. A, Schematic representation of wild-type CtIP and deletion mutant constructs that were tested for interaction with LMO4 in mammalian cells. The region that associates with BRCA1 and two putative leucine zipper (LZ) domains are indicated. A summary of each mutant's ability to interact with LMO4 is shown. […] Lysates were prepared and proteins immunoprecipitated using anti-Flag monoclonal antibody (F) or control isotype-matched (C) monoclonal antibody. After SDS-PAGE electrophoresis, western blotting was performed using α-HA antibody, specific for CtIP protein. Western blot analysis confirmed expression of Flag-LMO4 and CtIP mutant proteins (lower panels).
(§3) Cell extracts (0.5 ml) were prepared in whole cell lysis buffer (150 mM NaCl, 5 mM EDTA, 50 mM Tris pH7.5, 1% Nonidet P-40, 1 mM DTT) containing protease inhibitors (1 mM phenylmethylsulfonyl fluoride, 1 μg/ml leupeptin, 1 μg/ml pepstatin, 1 μg/ml aprotinin) and normalised for protein concentration, as determined by Bradford analysis (BioRad). Proteins were immunoprecipitated with either anti-Flag M2 (Sigma) or anti-myc 9E10 and protein G sepharose (Amersham Pharmacia Biotech.), and separated by SDS-PAGE (Novex). […]

HA-CtIP (59-320) = molecular target: T1, HA-CtIP (59-320) (human, UniProt Q99708 59-320); assay: as above
T1 construct: range 59-320
Experimental: as §2, §3

[2] = molecular target: BRCA1 activation domain (amino acids 1293-1863) fused to the Gal4 DNA-binding domain (human, UniProt P04386 1-147; P38398 1293-1863); assay: cell-based or functional assay
[3] = molecular target: T2, HA-tagged BRCA1 SZ fragment (residues 1528-1863) (human, UniProt P38398 1528-1863, 35S-methionine-labeled in the in vitro binding assay); assay: in vitro binding of 35S-labeled BRCA1-SZ to GST-LMO4 on glutathione sepharose, SDS-PAGE
T2 construct: also called BRCT (SZ) region
Experimental: FIG. 10: The C-terminal BRCT domains of BRCA1 mediate interaction with LMO4. […] Lysates were immunoprecipitated with anti-Flag (F) or control (C) antibody, then western blotted with anti-HA antibody. B, LMO4 and the BRCT domain interact in vitro. […] Bound proteins were analysed by SDS-PAGE. Arrow depicts the BRCA1-SZ protein. C, LMO4 and the BRCT (SZ) region of BRCA1 interact in yeast Hf7c cells. Yeast cells were cotransformed with the indicated expression vectors and plated on media deficient in his, leu and trp. Staining for β-galactosidase activity verified that the His⁺ colonies obtained for LMO4+CtIP and LMO4+BRCA1 (SZ) transformants were also β-Gal⁺. No colonies were obtained for Hf7c cells transformed with BRCA1 (SZ)+lamin, BRCA1 (SZ) alone or LMO4 alone.
Binding assays were carried out with a 10 μl aliquot of […] BRCA1-SZ primed lysate and 100 μl (50% slurry of GST-sepharose beads; Amersham Pharmacia) of GST-LMO4 or GST-only protein in GST interaction buffer (150 mM NaCl, 10 mM Tris pH 8, 0.3% NP-40, 1 mM DTT, 0.25% BSA and 0.5 mM phenylmethylsulfonyl fluoride) for 2 hours at 4° C. The beads were subsequently washed twice in GST interaction buffer containing BSA, followed by two more washes in GST interaction buffer without BSA. Finally, the bound BRCA1 C-terminal polypeptide was eluted by boiling the beads for 5 min in 30 μl loading buffer and analysed by SDS-PAGE.

[4] = molecular target: T3, endogenous CtIP of human HBL100 breast epithelial cells (human, UniProt Q99708 1-897); assay: immunoprecipitation of HBL100 nuclear extracts with anti-LMO4 antisera / anti-CtIP western blot (FIG. 6D)
T3 construct: mature; also called native CtIP
Experimental: as §1, with “A,” for “FIG. 6: Interaction between LM04 and CtIP requires a single LIM domain and appears to be specific for the LMO subclass. A,”, “cells. Nuclear extracts were immunoprecipitated with pre-immune serum (lane 1) or anti-LMO4 antisera (lane 2), then blotted using anti-CtIP monoclonal antibody.” for “cells.”

[5] = molecular target: T4, endogenous BRCA1 of human HBL100 breast epithelial cells (human, UniProt P38398 1-1863); assay: immunoprecipitation of HBL100 nuclear lysates with rat anti-LMO4 monoclonal / anti-BRCA1 western blot (FIG. 9B)
T4 construct: mature; also called native BRCA1; BRCA1 (220 kD)
From the text: Nuclear lysates were immunoprecipitated with a rat anti-LMO4 monoclonal (lane 2) or control antibody (lane 3), then immunoblotted with anti-BRCA1 (upper panel) or anti-CtIP (middle panel) monoclonal antibody. The immunoprecipitate was divided between two SDS-polyacrylamide gels, one of which underwent extended electrophoresis for detection of BRCA1 (220 kD) while the other was immunoblotted with anti-CtIP antibody. As a control, immunoprecipitate was also blotted with anti-LMO4 monoclonal antibody (lower panel). Lysate from HBL100 cells was loaded in an adjacent lane to provide a size control for the respective proteins (lane 1), indicated by arrows. C, Interaction between LMO4, CtIP, BRCA1 and Ldb1 in mammalian cells. […] Western blot analysis confirmed high level expression of individual proteins in these transfectants (lane 1).
For detection of endogenous proteins, nuclear extracts from human HBL100 cells were prepared (Watters, D., Khanna, K. K., Beamish, H., Birrell, G., Spring, K., Kedar, P., Gatei, M., Stenzel, D., Hobson, K., Kozlov, S., Zhang, N., Farrell, A., Ramsay, J., Gatti, R., and Lavin, M. (1997) Oncogene 14(16), 1911-21). Proteins were immunoprecipitated with either anti-LMO4 rabbit antisera or a rat anti-LMO4 monoclonal antibody and protein G sepharose, and fractionated by SDS-PAGE. […]

Sequence of HA-CtIP (281-620) (Q99708 281-620 limits assumed): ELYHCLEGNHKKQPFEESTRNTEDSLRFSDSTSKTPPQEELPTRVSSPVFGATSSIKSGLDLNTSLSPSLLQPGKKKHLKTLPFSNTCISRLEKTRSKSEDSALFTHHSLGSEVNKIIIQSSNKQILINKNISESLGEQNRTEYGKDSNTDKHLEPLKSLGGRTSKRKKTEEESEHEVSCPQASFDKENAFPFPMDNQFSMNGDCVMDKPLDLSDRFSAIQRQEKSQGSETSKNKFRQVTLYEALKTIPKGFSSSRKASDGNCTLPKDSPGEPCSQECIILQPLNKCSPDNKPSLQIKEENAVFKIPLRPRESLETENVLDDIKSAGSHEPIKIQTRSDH
Sequence of CtIP (residues 45-897), human, from pCMV-HA-ns311 (Q99708 45-897 limits assumed): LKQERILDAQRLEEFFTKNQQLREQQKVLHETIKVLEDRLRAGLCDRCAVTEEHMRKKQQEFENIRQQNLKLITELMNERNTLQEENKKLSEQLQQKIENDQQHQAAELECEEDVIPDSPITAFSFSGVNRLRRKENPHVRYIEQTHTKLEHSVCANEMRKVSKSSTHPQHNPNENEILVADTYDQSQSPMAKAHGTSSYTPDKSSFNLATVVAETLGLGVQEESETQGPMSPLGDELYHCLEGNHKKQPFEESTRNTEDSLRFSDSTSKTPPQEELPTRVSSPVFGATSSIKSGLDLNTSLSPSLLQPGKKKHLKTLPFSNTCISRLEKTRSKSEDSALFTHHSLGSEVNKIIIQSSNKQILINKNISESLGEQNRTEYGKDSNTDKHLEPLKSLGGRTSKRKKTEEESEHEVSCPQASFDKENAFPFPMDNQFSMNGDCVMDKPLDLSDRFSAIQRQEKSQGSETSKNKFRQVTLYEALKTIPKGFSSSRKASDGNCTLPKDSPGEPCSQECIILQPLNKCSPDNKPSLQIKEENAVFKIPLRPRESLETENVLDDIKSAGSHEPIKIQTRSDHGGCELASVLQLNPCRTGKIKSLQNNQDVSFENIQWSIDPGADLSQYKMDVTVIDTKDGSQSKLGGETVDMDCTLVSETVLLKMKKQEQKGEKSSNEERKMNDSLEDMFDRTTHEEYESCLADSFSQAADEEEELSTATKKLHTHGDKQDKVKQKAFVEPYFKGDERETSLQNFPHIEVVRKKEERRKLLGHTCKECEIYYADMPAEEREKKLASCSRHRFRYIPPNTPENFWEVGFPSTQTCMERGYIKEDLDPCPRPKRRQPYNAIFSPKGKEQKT
T3 sequence (Q99708 whole entry): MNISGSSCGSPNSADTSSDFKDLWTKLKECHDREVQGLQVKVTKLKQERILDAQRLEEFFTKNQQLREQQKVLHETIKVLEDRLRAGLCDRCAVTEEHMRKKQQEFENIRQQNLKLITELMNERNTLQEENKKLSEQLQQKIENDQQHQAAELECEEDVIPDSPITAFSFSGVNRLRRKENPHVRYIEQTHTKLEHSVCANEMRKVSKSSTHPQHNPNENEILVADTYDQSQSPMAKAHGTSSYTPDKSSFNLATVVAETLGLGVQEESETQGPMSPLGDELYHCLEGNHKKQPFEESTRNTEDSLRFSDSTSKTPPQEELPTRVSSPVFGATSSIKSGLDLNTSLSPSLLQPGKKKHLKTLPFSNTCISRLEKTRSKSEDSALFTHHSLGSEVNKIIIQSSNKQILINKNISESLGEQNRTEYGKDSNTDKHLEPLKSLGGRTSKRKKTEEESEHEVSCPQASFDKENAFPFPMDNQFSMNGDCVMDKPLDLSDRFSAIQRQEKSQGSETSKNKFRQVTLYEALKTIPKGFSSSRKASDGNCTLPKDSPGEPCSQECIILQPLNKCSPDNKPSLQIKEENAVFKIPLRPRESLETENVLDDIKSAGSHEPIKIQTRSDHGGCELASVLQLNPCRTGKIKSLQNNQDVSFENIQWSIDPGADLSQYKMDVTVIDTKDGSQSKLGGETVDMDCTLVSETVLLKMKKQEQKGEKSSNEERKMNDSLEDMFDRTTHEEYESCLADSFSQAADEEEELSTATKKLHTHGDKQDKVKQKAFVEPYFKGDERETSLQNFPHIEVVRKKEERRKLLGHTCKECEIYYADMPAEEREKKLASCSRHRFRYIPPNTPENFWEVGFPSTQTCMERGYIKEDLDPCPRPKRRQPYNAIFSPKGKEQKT
T4 sequence (P38398 whole entry): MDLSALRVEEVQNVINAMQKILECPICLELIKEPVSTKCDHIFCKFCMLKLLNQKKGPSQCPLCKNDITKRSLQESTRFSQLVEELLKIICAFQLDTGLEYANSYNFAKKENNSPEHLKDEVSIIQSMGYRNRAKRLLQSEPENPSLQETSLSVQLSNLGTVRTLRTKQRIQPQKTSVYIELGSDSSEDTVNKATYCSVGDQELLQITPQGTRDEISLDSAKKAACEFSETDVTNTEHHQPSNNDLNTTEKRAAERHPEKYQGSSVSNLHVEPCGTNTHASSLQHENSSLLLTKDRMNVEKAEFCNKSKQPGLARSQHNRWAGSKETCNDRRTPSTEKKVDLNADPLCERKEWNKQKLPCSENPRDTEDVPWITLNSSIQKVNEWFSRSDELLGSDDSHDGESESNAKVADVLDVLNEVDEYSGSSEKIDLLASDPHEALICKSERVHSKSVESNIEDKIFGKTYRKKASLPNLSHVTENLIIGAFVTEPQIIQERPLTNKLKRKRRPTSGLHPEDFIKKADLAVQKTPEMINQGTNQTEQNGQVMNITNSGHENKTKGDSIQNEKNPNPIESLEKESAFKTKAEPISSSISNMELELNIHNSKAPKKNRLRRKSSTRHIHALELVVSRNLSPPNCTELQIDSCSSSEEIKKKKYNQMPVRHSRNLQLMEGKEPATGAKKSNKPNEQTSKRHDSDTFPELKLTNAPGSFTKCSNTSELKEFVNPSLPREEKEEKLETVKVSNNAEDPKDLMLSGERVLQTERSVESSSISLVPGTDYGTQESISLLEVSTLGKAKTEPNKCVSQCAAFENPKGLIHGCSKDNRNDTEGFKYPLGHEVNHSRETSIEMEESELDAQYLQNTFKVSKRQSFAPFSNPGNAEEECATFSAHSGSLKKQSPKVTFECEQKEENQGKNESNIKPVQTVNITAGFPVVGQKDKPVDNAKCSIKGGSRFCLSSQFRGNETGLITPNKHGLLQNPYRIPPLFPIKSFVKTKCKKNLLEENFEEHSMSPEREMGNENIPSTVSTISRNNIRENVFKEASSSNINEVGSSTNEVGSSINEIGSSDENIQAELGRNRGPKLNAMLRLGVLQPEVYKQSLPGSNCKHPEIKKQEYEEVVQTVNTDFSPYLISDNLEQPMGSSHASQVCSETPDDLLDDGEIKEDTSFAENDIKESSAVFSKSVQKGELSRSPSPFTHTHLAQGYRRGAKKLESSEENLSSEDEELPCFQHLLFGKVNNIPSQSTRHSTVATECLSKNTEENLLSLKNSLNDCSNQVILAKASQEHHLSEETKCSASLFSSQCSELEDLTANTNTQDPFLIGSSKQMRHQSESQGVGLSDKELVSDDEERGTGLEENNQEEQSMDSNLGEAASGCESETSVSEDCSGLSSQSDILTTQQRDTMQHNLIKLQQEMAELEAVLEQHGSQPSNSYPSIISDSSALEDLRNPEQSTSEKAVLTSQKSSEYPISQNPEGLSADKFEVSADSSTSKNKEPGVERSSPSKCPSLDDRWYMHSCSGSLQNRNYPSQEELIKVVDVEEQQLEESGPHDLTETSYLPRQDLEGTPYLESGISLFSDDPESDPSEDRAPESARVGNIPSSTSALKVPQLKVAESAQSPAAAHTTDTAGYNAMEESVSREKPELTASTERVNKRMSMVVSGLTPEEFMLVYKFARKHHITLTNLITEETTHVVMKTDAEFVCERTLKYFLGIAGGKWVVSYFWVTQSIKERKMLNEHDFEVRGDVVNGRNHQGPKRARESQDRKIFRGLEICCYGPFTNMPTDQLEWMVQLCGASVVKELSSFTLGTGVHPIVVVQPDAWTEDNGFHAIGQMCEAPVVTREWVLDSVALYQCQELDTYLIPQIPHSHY
T2 sequence (P38398 1528-1863): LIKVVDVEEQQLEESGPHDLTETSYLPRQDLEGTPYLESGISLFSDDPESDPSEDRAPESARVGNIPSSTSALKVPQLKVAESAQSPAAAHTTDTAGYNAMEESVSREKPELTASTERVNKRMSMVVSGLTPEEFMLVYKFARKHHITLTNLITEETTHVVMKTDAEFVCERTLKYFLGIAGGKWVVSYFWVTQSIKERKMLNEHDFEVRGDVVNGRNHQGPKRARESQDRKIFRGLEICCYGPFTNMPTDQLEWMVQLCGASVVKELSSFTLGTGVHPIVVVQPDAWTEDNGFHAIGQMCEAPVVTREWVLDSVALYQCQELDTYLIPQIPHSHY
T1 sequence (Q99708 59-320 limits assumed): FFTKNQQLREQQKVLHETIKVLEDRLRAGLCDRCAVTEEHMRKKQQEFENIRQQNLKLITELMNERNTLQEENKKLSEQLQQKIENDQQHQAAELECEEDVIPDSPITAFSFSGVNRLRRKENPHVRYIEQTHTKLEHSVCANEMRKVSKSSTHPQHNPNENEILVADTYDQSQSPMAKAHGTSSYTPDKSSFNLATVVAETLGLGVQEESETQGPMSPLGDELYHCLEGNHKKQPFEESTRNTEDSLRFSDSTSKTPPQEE

B1: Flag-tagged second LIM domain of LMO4 (residues 79-165) (other, UniProt P61968 79-165, looked up, not shown: small tags and cut ends)
chain: RLFGNSGACSACGQSIPASELVMRAQGNVYHLKCFTCSTCRNRLVPGDRFHYINGSLFCEHDRPTALINGHLNSLQSNPLLPDQKVC
notes: also called LIM2
binding result [1]: no binding

B4: endogenous LMO4 of human HBL100 breast epithelial cells (other, UniProt P61968 1-165, looked up)
chain: MVNPGSSSQPPPVTAGSLSWKRCAGCGGKIADRFLLYAMDSYWHSRCLKCSCCQAQLGDIGTSCYTKSGMILCRNDYIRLFGNSGACSACGQSIPASELVMRAQGNVYHLKCFTCSTCRNRLVPGDRFHYINGSLFCEHDRPTALINGHLNSLQSNPLLPDQKVC
notes: mature; also called native LMO4; 17 kD LMO4 protein
binding result [4]: binds
binding result [5]: binds

Further lines, results first:

binding result (HA-CtIP (281-620)): no binding
binding result (HA-CtIP (59-320)): no binding
transcription of the Gal4-CAT reporter gene in 293T cells (CAT ELISA) [2]: ~3 fold
B2: Flag-tagged LMO4 (full-length) (other, UniProt P61968 1-165, looked up, not shown: small tags and cut ends)
chain: MVNPGSSSQPPPVTAGSLSWKRCAGCGGKIADRFLLYAMDSYWHSRCLKCSCCQAQLGDIGTSCYTKSGMILCRNDYIRLFGNSGACSACGQSIPASELVMRAQGNVYHLKCFTCSTCRNRLVPGDRFHYINGSLFCEHDRPTALINGHLNSLQSNPLLPDQKVC
notes: mature; also called Flag-LMO4; LM04

binding result [3]: binds
B3: GST-LMO4 fusion protein (full-length mouse LMO4 in pGEX-2T) (other, UniProt P61969 1-165, looked up)
chain: MVNPGSSSQPPPVTAGSLSWKRCAGCGGKIADRFLLYAMDSYWHSRCLKCSCCQAQLGDIGTSCYTKSGMILCRNDYIRLFGNSGACSACGQSIPASELVMRAQGNVYHLKCFTCSTCRNRLVPGDRFHYINGSLFCEHDRPTALINGHLNSLQSNPLLPDQKVC
notes: mature; Expressed in bacterial strain UT5600, immobilised on glutathione sepharose; not shown: glutathione-S-transferase as encoded by pGEX-2T; linker to LMO4 not described
